{"source": "patent US20230070786A1", "about": "(SPIBER TECHNOLOGIES, published 2023)", "proteins": {"B1": {"name": "NT2RepCT (other)", "chain": "MGHHHHHHMSHTTPWTNPGLAENFMNSFMQGLSSMPGFTASQLDDMSTIAQSMVQSIQSLAAQGRTSPNKLQALNMAFASSMAEIAASEEGGGSLSTKTSSIASAMSNAFLQTTGVVNQPFINEITQLVSMFAQAGMNDVSAGNSGRGQGGYGQGSGGNAAAAAAAAAAAAAAAGQGGQGGYGRQSQGAGSAAAAAAAAAAAAAAGSGQGGYGGQGQGGYGQSGNSVTSGGYGYGTSAAAGAGVAAGSYAGAVNRLSSAEAASRVSSNIAAIASGGASALPSVISNIYSGVVASGVSSNEALIQALLELLSALVHVLSSASIGNVSSVGVDSTLNVVQDSVGQYVG", "notes": "Engineered chimeric spidroin made in E. coli and tested with its His tag; also called chimeric minispidroin NT2RepCT; chimeric NT2RepCT protein"}}, "biological_target": "the molecule itself", "assay": "size exclusion chromatography, self-association", "procedure": "The inventors designed a minispidroin composed of NT from E. australis MaSp1 and CT from A. ventricosus MiSp bracketing a short repetitive region from E. australis. The chimeric NT2RepCT protein was produced at unprecedented high levels in shake flask E. coli cultures and the yield after purification was around 125 mg protein/L cell culture. Nearly all protein was soluble after expression and lysis, and bound efficiently to the Ni-NTA column (FIG. 2A). The eluate contained >95% pure NT2RepCT and the size of the protein on the SDS PAGE gel corresponded well to the expected molecular mass (33 kDa) (FIG. 2A). Size-exclusion chromatography indicated a mass of 100 kDa (FIG. 6), in good agreement with a dimer (due to the constitutive dimeric nature of CT) and a non-globular structure of the repetitive part.\nA Superdex 200 HR column (Amersham Biosciences) was used to run 200 μl of purifed protein sample in TBS running buffer (20 mM Iris, 150 mM NaCl and 1 mM EDTA, pH 8.0). The flow rate used was 0.5 ml/min. Molecular mass standards Ribonuclease A (13.7 kDa), Carbonic anhydrase (29 kDa), Ovalbumin (43 kDa), Conalbumin (75 kDa), Aldolase (158 kDa) and Ferritin (440 kDa) were used for calibration.", "data": [{"protein": "B1", "values": [{"measurement": "binding result", "value": "binds"}]}]}
